Results: paper PMC7956748 (2021)
Each block holds one binder with its values, some of them ahead of it.

Key:
[1] = biological target: T1, transforming growth factor-beta 1 (TGF-β1) (UniProt P01137 279-390); assay: SPR
[2] = biological target: T1, transforming growth factor-beta 1 …; assay: SPR; remark: listed apart in the source

T1 sequence (P01137 279-390): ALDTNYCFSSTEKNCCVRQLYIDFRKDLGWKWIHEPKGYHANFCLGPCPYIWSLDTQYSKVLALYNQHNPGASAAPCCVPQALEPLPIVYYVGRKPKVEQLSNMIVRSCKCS

Kd [1]: 22.9 nM
koff [2]: 0.000392 s⁻¹
B1: cartilage oligomeric matrix protein (COMP), recombinant full-length rat (natural protein)
chain: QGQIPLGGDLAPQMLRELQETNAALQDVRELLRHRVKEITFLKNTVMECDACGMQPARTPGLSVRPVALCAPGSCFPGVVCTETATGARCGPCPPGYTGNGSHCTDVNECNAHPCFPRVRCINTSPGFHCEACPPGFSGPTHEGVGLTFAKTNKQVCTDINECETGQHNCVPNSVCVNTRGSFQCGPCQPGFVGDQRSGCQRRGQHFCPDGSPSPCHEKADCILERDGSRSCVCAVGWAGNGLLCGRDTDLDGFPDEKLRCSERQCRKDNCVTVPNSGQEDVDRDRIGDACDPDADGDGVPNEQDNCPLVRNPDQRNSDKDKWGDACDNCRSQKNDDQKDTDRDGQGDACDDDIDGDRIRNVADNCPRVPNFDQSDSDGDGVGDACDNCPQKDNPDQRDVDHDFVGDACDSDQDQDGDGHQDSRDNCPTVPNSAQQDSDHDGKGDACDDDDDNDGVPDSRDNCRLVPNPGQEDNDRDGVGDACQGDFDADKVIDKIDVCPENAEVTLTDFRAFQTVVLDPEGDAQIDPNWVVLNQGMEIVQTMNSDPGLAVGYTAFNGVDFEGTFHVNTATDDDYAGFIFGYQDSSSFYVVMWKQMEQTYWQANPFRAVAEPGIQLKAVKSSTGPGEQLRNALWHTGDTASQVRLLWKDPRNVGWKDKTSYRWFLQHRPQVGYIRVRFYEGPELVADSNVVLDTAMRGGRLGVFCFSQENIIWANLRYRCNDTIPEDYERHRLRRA

Kd [1]: 6.3 nM
koff [2]: 0.000889 s⁻¹
B2: thrombospondin-4 (TSP-4), recombinant full-length rat (natural protein)
chain: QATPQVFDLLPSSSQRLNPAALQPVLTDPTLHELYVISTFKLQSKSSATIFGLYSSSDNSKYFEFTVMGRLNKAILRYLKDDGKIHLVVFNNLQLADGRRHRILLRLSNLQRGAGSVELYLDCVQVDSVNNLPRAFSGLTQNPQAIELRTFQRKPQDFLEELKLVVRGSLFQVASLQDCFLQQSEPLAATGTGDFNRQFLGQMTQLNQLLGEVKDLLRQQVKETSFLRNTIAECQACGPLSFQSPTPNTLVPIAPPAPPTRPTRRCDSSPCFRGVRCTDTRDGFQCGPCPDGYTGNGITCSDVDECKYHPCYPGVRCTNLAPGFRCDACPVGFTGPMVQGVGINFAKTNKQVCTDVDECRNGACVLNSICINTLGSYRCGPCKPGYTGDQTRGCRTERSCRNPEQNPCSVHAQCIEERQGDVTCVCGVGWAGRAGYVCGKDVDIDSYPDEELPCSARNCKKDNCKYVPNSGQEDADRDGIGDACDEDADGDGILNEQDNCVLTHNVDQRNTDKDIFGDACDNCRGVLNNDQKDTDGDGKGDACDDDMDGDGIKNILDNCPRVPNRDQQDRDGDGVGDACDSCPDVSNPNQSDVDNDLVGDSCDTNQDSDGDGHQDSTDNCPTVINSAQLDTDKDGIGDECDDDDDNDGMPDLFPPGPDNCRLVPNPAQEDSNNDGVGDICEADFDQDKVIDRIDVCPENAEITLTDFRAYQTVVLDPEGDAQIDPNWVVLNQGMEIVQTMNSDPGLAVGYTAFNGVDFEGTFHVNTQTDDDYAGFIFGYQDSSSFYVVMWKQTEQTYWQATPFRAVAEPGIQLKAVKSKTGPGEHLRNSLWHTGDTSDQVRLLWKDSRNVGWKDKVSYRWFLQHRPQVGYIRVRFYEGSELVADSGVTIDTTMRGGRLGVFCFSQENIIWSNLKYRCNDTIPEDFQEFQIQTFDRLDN
